The source of these data is publication PMC4402148.

In this data set the target is DDX3X D1 WT (Homo sapiens, UniProt O00571 135-407). Briefly: NMR CSP.
Sequence of DDX3X D1 WT (O00571 135-407): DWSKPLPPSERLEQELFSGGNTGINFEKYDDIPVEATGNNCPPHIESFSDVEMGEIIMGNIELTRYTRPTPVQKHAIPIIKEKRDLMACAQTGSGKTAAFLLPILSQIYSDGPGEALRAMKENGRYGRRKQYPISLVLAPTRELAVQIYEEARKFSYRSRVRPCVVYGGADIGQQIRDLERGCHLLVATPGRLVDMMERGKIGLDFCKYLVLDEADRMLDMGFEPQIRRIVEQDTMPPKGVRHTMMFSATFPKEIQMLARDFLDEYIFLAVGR

B1: blunt 14-mer dsRNA (NMR) (dsRNA)
RNA 1: GGGCGGGCCCGCCC
RNA 2: GGGCGGGCCCGCCC
For B1, the binding result is “binds”.
